T1: Rad9
T1 chain: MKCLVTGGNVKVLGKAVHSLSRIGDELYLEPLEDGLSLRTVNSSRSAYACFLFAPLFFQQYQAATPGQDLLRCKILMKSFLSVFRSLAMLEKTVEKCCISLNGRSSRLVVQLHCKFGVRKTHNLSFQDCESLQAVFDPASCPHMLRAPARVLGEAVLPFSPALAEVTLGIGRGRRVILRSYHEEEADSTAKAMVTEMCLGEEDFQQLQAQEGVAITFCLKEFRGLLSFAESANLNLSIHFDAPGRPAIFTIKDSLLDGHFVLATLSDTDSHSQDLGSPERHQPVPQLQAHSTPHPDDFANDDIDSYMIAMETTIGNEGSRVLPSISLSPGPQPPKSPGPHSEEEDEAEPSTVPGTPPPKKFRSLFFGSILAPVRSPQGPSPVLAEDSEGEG

T2: protein phosphatase 5 (PP5) (Homo sapiens (Human), UniProt P53041 1-499, limits assumed)
T2 construct: Wildtype PP5; also called protein phosphatase type 5; cell cycle protein
T2 sequence: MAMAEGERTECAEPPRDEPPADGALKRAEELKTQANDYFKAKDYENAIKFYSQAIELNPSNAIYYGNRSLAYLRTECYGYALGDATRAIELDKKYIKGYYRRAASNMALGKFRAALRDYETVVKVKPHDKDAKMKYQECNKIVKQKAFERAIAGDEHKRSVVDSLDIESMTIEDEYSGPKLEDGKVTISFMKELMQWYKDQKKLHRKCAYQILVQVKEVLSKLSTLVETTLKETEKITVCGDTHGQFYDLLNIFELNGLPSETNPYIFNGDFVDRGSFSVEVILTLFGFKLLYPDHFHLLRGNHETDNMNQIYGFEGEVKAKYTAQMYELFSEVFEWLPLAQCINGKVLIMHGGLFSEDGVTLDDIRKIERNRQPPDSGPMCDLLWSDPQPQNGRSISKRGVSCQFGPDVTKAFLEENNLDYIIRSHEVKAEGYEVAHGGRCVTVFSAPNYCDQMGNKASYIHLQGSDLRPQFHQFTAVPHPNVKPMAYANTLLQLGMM


Legend:
[1] = target: T1, Rad9
[2] = target: T2, protein phosphatase 5 (PP5); experiment: coimmunoprecipitation, gel

Row | Binder | dephosphorylation of Rad9 [1] | dephosphorylation of Rad9 in vitro [1] | binding result [2]
1 | protein phosphatase 5 (PP5) (protein) MAMAEGERTECAEPPRDEPPADGALKRAEELKTQANDYFKAKDYENAIKFYSQAIELNPSNAIYYGNRSLAYLRTECYGYALGDATRAIELDKKYIKGYYRRAASNMALGKFRAALRDYETVVKVKPHDKDAKMKYQECNKIVKQKAFERAIAGDEHKRSVVDSLDIESMTIEDEYSGPKLEDGKVTISFMKELMQWYKDQKKLHRKCAYQILVQVKEVLSKLSTLVETTLKETEKITVCGDTHGQFYDLLNIFELNGLPSETNPYIFNGDFVDRGSFSVEVILTLFGFKLLYPDHFHLLRGNHETDNMNQIYGFEGEVKAKYTAQMYELFSEVFEWLPLAQCINGKVLIMHGGLFSEDGVTLDDIRKIERNRQPPDSGPMCDLLWSDPQPQNGRSISKRGVSCQFGPDVTKAFLEENNLDYIIRSHEVKAEGYEVAHGGRCVTVFSAPNYCDQMGNKASYIHLQGSDLRPQFHQFTAVPHPNVKPMAYANTLLQLGMM | cotransfection of PP5 with Rad9 in HeLa cells leads to dephosphorylation of Rad9 which is dependent on phophatase activity of PP5 | PP5 dephosphorylates Rad9 directly in vitro | 
2 | Rad9 (other, also called human Rad9) MKCLVTGGNVKVLGKAVHSLSRIGDELYLEPLEDGLSLRTVNSSRSAYACFLFAPLFFQQYQAATPGQDLLRCKILMKSFLSVFRSLAMLEKTVEKCCISLNGRSSRLVVQLHCKFGVRKTHNLSFQDCESLQAVFDPASCPHMLRAPARVLGEAVLPFSPALAEVTLGIGRGRRVILRSYHEEEADSTAKAMVTEMCLGEEDFQQLQAQEGVAITFCLKEFRGLLSFAESANLNLSIHFDAPGRPAIFTIKDSLLDGHFVLATLSDTDSHSQDLGSPERHQPVPQLQAHSTPHPDDFANDDIDSYMIAMETTIGNEGSRVLPSISLSPGPQPPKSPGPHSEEEDEAEPSTVPGTPPPKKFRSLFFGSILAPVRSPQGPSPVLAEDSEGEG |  |  | binds

Source: patent publication US7384761 (RIGEL PHARMACEUTICALS, dated 2008)
